Source: the RNAGym collection of RNA variant scans (doi:10.1073/pnas.2313332121)
This sample holds only a part of the variants without activity.

B1: TPR 5TU (parent)
chain: GGAUCUUCUCGAUCUAACAAAAAAGACAAAUCUGCCACAAAGCUUGAGAGCAUCUUCGGAUGCAGAGGCGGCAGCCUUCGGUGGCGCGAUAGCGCCAACGUUCUCAACUAUGACACGCAAAACGCGUGCUCCGUUGAAUGGAGUUUAUCAUG

Variants of: B1
Experiment: polymerase ribozyme fitness, log enrichment relative to wild type (log ratio); higher = more active; in vitro selection for triplet polymerase activity
Outline: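 Only genotypes with ≥10 input reads and ≥1 read per output were kept after Illumina sequencing of input and output libraries. These libraries were PCR-built, transcribed mutants of each subunit of a heterodimeric triplet polymerase ribozyme, each put through one triplicate in vitro selection round with frozen incubation at −7 °C, gel excision of extended constructs, streptavidin-bead capture and RT-PCR. Fitness is a logarithmic ratio of genotype enrichment to wild-type enrichment, from inverse-variance-weighted replicate averages, with the logarithm in base 2.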

Going from C51U G84A to C51U U56A C87A C95U C118A U139C, the “polymerase ribozyme fitness (log ratio)” value falls from -0.489 to at most -4.2.

First: C51U C69G C118G A142C C149G
Second: A52C U55G
The “polymerase ribozyme fitness (log ratio)” value of the first is lower: at most -4.2 for the first, -3.84 for the second.

Compared with A52G A60G C75U G88U G92A C95U C116U, C51U U134A is higher in “polymerase ribozyme fitness (log ratio)” value: at most -4.2 for the first, -2.32 for the second.

First: A52G C63U C93U
Second: C51U U55A C76A U90C C96G G100A U101G
The “polymerase ribozyme fitness (log ratio)” value of the first is higher: -1.7 for the first, at most -4.2 for the second.

C51U C95U and C51U C95G are within 0.2 log units of each other in “polymerase ribozyme fitness (log ratio)” value: -1.69 for the first, -1.68 for the second.

A52G C105A C123A G133U U144G and A52G G100U A106U cannot be ordered by “polymerase ribozyme fitness (log ratio)” value: at most -4.2 for the first, at most -4.2 for the second.

Compared with A52G A60C, A52C U111C A121C C123A U145A A150G is lower in “polymerase ribozyme fitness (log ratio)” value: -1.96 for the first, -3.02 for the second.

First: C51U G70U G88A G94U A106C
Second: A52C A73U
The “polymerase ribozyme fitness (log ratio)” value of the first is lower: at most -4.2 for the first, -3.14 for the second.

Going from A52C A73G to A52G U102G G124A, the “polymerase ribozyme fitness (log ratio)” value falls from -1.89 to -3.08.

Going from C51U C57A G83C A106G to A52G U53A C54U C93G G112U, the “polymerase ribozyme fitness (log ratio)” value falls from -0.97 to at most -4.2.

Going from A52C A89U C96G G141U to C51U C75U G88A C93U G94A G136C, the “polymerase ribozyme fitness (log ratio)” value falls from -1.47 to at most -4.2.

Compared with C51U G58U U77G C96A, C51U C96U C105U is higher in “polymerase ribozyme fitness (log ratio)” value: -4.18 for the first, 0.0676 for the second.

First: C51G U56A A97U C123U
Second: A52G C96U U101A A142U A150G
The “polymerase ribozyme fitness (log ratio)” value of the first is higher: -3 for the first, at most -4.2 for the second.

Compared with C51U C85U C96G A119C G141A, C51U A52C U82G U135G is lower in “polymerase ribozyme fitness (log ratio)” value: -2.65 for the first, -3.54 for the second.

Compared with A52G A150G, C51U G81C C85U G117C U134A A137G is lower in “polymerase ribozyme fitness (log ratio)” value: -2.55 for the first, -3.98 for the second.

A52C A73G C85A and A52G U56G C85A C131U A137G are within 0.2 log units of each other in “polymerase ribozyme fitness (log ratio)” value: -3.88 for the first, -3.95 for the second.

A52C G74C C108U A113G U145G and A52C C54A cannot be ordered by “polymerase ribozyme fitness (log ratio)” value: at most -4.2 for the first, at most -4.2 for the second.

Going from C51G U56A A89U A119C C129U to A52C G81A G86U, the “polymerase ribozyme fitness (log ratio)” value rises from at most -4.2 to -2.1.

First: A52G C125U
Second: A52G U55A C87G
The “polymerase ribozyme fitness (log ratio)” value of the first is higher: -0.198 for the first, at most -4.2 for the second.

Compared with C51U U53A G65U G84U C93A C116G U135G, A52G C54G G67C G81A C95G is higher in “polymerase ribozyme fitness (log ratio)” value: at most -4.2 for the first, -3.86 for the second.

A52G U53A C57A A73U C87G C93A C132U A150C and A52G A64U G81A G86C G92A A122C G143C cannot be ordered by “polymerase ribozyme fitness (log ratio)” value: at most -4.2 for the first, at most -4.2 for the second.

Going from C51U G94A to C51U G94C, the “polymerase ribozyme fitness (log ratio)” value rises from -1.11 to -0.484.

First: A52G G141A
Second: A52C A110G A150G
The “polymerase ribozyme fitness (log ratio)” value of the first is higher: -1.24 for the first, -3.86 for the second.

Compared with C51U A73G G92U G124A, A52G U144A is lower in “polymerase ribozyme fitness (log ratio)” value: -0.37 for the first, -0.831 for the second.

Going from C51U C95G C105U U145A to A52U A122G, the “polymerase ribozyme fitness (log ratio)” value falls from -1.72 to -3.43.

Going from C51U G65C C87U to C51U C131G, the “polymerase ribozyme fitness (log ratio)” value rises from at most -4.2 to -3.49.

First: A52U A73C G83C G84A G92U C123G
Second: C51U C116U A121C G152U
The “polymerase ribozyme fitness (log ratio)” value of the first is lower: at most -4.2 for the first, -3.78 for the second.

Going from A52G C93U G94C A97C to A52G G94C, the “polymerase ribozyme fitness (log ratio)” value rises from -3.73 to -1.32.

A52G C93G C96U U104C A150G and A52C G70C C85U G94C C129A cannot be ordered by “polymerase ribozyme fitness (log ratio)” value: at most -4.2 for the first, at most -4.2 for the second.

Going from A52G A66C C85A A110C to C51U G84A C96A C149U, the “polymerase ribozyme fitness (log ratio)” value rises from at most -4.2 to -2.56.

Compared with A52G G84A C118U C123G, A52C G83U is lower in “polymerase ribozyme fitness (log ratio)” value: -1.29 for the first, -2.01 for the second.

Going from A52G G74C C96U U144G to C51U C93A A150U, the “polymerase ribozyme fitness (log ratio)” value rises from at most -4.2 to -0.998.

A52C A91U C93A G133C and C51U U56G A73C C79G C93G A137C cannot be ordered by “polymerase ribozyme fitness (log ratio)” value: at most -4.2 for the first, at most -4.2 for the second.

Compared with A52G C69A, A52C G84A G88C is lower in “polymerase ribozyme fitness (log ratio)” value: -3.71 for the first, -4.09 for the second.

First: A52C A113U
Second: A52C A113C
The “polymerase ribozyme fitness (log ratio)” value of the first is lower: -3.88 for the first, -3.36 for the second.

Going from A52G G86A to C51U C85U G140C, the “polymerase ribozyme fitness (log ratio)” value falls from -0.796 to at most -4.2.

Going from A52G G71U to A52C U55A A66C C79G G133U A137G, the “polymerase ribozyme fitness (log ratio)” value falls from -2.58 to at most -4.2.

Going from A52G C57G C87U to A52C A64G C85U U145G, the “polymerase ribozyme fitness (log ratio)” value falls from -1.27 to at most -4.2.

Going from C51U U78G C96U to A52C C54A A89G G117A, the “polymerase ribozyme fitness (log ratio)” value rises from at most -4.2 to -3.55.

First: C51U A60U G84A A98G A121C G143U A147C
Second: C51U C54U C76A G86A
The “polymerase ribozyme fitness (log ratio)” value of the first is lower: at most -4.2 for the first, -2.96 for the second.

Going from A52C C69A C96A to C51U A52U G74C A113C C131A, the “polymerase ribozyme fitness (log ratio)” value falls from -3.18 to at most -4.2.

With C51U G58A the “polymerase ribozyme fitness (log ratio)” value was -1.32.
